Results on 3 molecules are retold here after patent US20240377414A1 (BELLYLABS, published 2024).

Assay [1] deals with T1, canine relaxin (mature relaxin in pregnant dog serum) (dog, UniProt Q9TRM8 154-177; Q9TRM8 26-60).
T1 construct: mature; Endogenous relaxin in serum, plasma or whole blood of pregnant dogs; also called dog relaxin
In words: hybridoma screen for activity against relaxin-positive pregnant dog serum. The procedure:
Monoclonal IgG antibodies were prepared by immunizing mice with preprorelaxin (Bioraytec Ltd., Zhuhai, China) using standard laboratory methods known in the art. Anti-preprorelaxin antibody expressing hybridomas were derived by fusing myeloma cells with splenocytes from the immunized mice. The antibodies produced by hybridoma clonal cell lines were initially screened for activity against relaxin-positive pregnant dog serum. Relaxin positivity of the serum was confirmed using the FASTest RELAXIN in vitro test (Diagnostik Megacor, Hörbranz, Austria). The serum contains mature relaxin as preprorelaxin is not present in serum, and so the selected antibodies are reactive against relaxin and not only preprorelaxin.

The target of assay [2] is T1, canine relaxin (mature relaxin in …). In words: hybridoma screen against relaxin-positive dog serum.

Where a chain is given by its changes, count along the chain named.

T1 sequence (Q9TRM8 154-177 limits assumed, chain 1 of 2): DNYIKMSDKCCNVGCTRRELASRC
T1 sequence (Q9TRM8 26-60 limits assumed, chain 2 of 2): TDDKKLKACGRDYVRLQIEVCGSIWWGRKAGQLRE

B1: monoclonal antibody 2H7 (antibody, V domains shown)
VH: DVQLQESGPDLVKPSQSLSLTCTVTGYSITSGYSWHWIRQFPGNKLEWMGYIHYSGRTNYNPSLKSRISITRDTSKNQFFLQLNSVTTEDTATYYCARSMDYWGQGTSVSVSS
VL: DIKMTQSPSSMYASLGERVTITCKASQDIKTYLNWYQQKPWKSPKTLIYYATSLADGVPSRFSGSGSGQDFSLTISSLESDDTATYFCLQHGESPPTFGGGTKLEIK
notes: Mouse monoclonal IgG from hybridoma; Mostly used as capture antibody on the test line; gold-labelled as detection antibody in the pair 2F10-2H7; also called capture antibody; hybridoma CCTCC C2021209
On to B1, for which, in assay [1], the binding result is listed as “binds”.

B2: monoclonal antibody 9B8 (antibody, V domains shown)
VH: EVKLEESGGGLVQPGGSMKLSCAASGFTFSDAWMDWVRRSPEKGLEWIAEIRSKAKNHITYYAESVKGRFTISRDDSKSSVYLQMNSLRTEDSGIYYCTGGFAYWGQGTLVTVSA
VL: DAVMTQNPLSLPVSLGDQASISCRSSQSLEKSNGNTYLNWYLQKPGQSPQLLIYRVSNRFSGVPDRISGGGSGTDFTLKISRVEAEDLGVYFCVQVSHVPFTFGSGTKLEIK
notes: also called second detection antibody; hybridoma CCTCC C2021211
Regarding B2, the binding result in assay [2] was “binds”.

B3: monoclonal antibody 2A4 (antibody, V domains shown)
VH: AVNLEESGGGLVLPGGSMKLSCTASGFTFSDAWMDWVRRSPEKGLEWLAEIRDETNNHITYYAESVKVRFIISRDDSKSSVYLQMNNLRPEDTGIYYCAAGFAYWGQGTLVTVSA
VL: B2 VL with N7T, P12S, N35K, P64L, I67F, G70S, V90L, V94L
notes: also called first detection antibody; hybridoma CCTCC C2021210
As to B3, in assay [2], the binding result is recorded as “binds”.
